Data: the DeepSol protein solubility set

Test: soluble on expression in E. coli; label from the status in PepcDB or PDB records

Sequence | soluble on expression in E. coli
MNIQPTIQSGITSQNNQHHQTEQIPSTQIPQSELPLGCQAGFVVNIPDDIQQHAPECGETTALLSLIKDKGLLSGLDEYIAPHLEEGSIGKKTLDMFGLFNVTQMALEIPSSVSGISGKYGVQLNIVKPDIHPTSGNYFLQIFPLHDEIGFNFKDLPGPLKNALSNSNISTTAVSTIASTGTSATTSTVTTEPKDPIPWFGLTAQVVRNHGVELPIVKTENGWKLVGETPLTPDGPKANYTEEWVIRPGEADFKYGASPLQATLGLEFGAHFKWDLDNPNTKYAVLTNAAANALGALGGFAVSRFASTDPMLSPHIGAMVGQAAGHAIQYNTPGLKPDTILWWAGATLGAADLNKAEFEVARFTDYPRIWWHAREGAIFPNKADIEHATGADIRAMEEGIPVGQRHPNPEDVVIDIESNGLPHHNPSNHVDIFDIIQETRV | not soluble
MNIQSIETYQVRLPLKTPFVTSYGRLEEKAFDLFVITDEQGNQGFGELVAFEQPDYVQETLVTERFIIQQHLIPLLLTEAIEQPQEVSTIFEEVKGHWMGKAALETAIWDLYAKRQQKSLTEFFGPTRRKIPVGISLGIQEDLPQLLKQVQLAVEKGYQRVKLKIRPGYDVEPVALIRQHFPNLPLMVDANSAYTLADLPQLQRLDHYQLAMIEQPFAADDFLDHAQLQRELKTRICLDENIRSLKDCQVALALGSCRSINLKIPRVGGIHEALKIAAFCQENDLLVWLGGMFESGVGRALNLQFASQPTFSFPGDISATERYFYEDIITEPFILEQGTMTVPQGLGIGVTLSQTNLLKYSQYQKIM | not soluble
MNIVIAAVGGQGAVLTSKILGTLAQNLGKDVKVSEVHGMSQRGGSVVAYVKFGDKVYSPVVEKGTADIVLAFEMLEGARYVDYLKENGKLVVNTQRIDPMPVITGDMEYPADLGEKLEELNIGYIPVDALSLAKNAGTIKAVNVALIGVLAQNSNIKKEEWIKAIKDTVPEKFLELNLKAFELGYNL | not soluble
MNKIALFVDVQNIYYTCREAYQRQFNYRKLWQHLSTQGEIVSAVAYAIHRGDDGQLKFQDALRHIGFELKLKPFIQRSDGSAKGDWDVGITIDVLDAAPNVDTVILLSGDGDFAILLEKITQKYGVKAEVYGVPQLTAKALMDATTQFNPIDDVLLL | soluble
MNKILIIISCILIMLTAFSCRRNVFNPNIPPRTEFIEDPIANLSIPSKDATIKVTPVEASINGYDSKSGQYGKMVYGHFEHYFEFKGHYYLTAAYQYIYGYTNEVIMIGNTTLMNYPNGHILEIDVNDGFKMKEVKANLGRTVPEYTRIAKIANGNAYQDDTYIYVQDSAGANYFKTSDFKSWTDTLSTTPPAGTTKREAVTMNRVQITANNGITYTYVYTGGGLQFSIERLDNRMKQLAQRLETKFTFKEEDFNNHHMFDIGINISTGTTADYRINPVEYIENDTNYIWIGKQSPHQIWLMPVKKDGKDYLIRFVEHCAGGGYYTIKMLETNINTYKKEAETALSKALAAVASDKPQAEIEQACYESIKADANYKANQYFYDVATKMGGLQGFWVGSPAVTEAGFISPNKPLTHYVIEFIDIQQ | not soluble
MNKILLQCDNLCKRYQEGTVQTDVLHDVSFSIGEGEMMAIVGSSGSGKSTLLHLLGGLDTPTSGDVIFSGQPMSKLSSAAKAELRNQKLGFIYQFHHLLPDFTALENVAMPLLIGKKKPAEIDARAREMLHAVGLEHRATHRPSELSGGERQRVAIARALVNNPRLVLADEPTGNLDARNADSIFELLGELNRLQGTAFLVVTHDLQLAKRMSRQLEMRDGRLTAELSLMGAE | not soluble
MNKIRYPAVAGLFYPSHPDELIDMIEQCYLHKFGPKSMPVHGTYEKPIGLLCPHAGYVYSGPIQAHSYYELSKRVDALEETTVVILGPNHTGLGSGVSVMDGIWRTPLGDVKCDEEFVEELWRKCEIVDLDETAHLNEHSIEVQLPFLKHLELLNIAKFKIVPICMMFQDYETAVEVGYFIAKIAKELNRRIVVIASSDLTHYEPQEIASKKDAIVIKDILEMNEKELYEDVVNYNISMCGYGPVIAMLKAMKTLGAEKAKLLAYATSGDITGDYSAVVGYASAIVELEHHHHHH | soluble
MNKKNICALAVLSGLSFSAMALDCDPNLLPSWQDGASKTAIVNYVDQSTDASKKTFIPEQDRIAVFDNDGTLWSEKPYYFQLAFALDQVKNMAKEHPEWKTQEPFKSVLNNDIKNVFAGGEKALLDIVTATHSGMTVEEYQQTVAQWLEVAKDPHFNKAYTELTYKPMREMVTYLQDHDFKVYIVSGGGVDFMRTWAPEVYGIPEEQIIGSALKYKYDYNNSNPTVTKLGEILTIDDKAGKVENIQHIIGKKPVLAIGNSDGDHAMMQWATSQPNSMAMIVHHTDEAREWKYDRKSSVGHLDKAMDEANQRDNWYLIDMKNEWCTVY | soluble
MNKLLPTSTAGSLPKPSWLAQPEKLWSPWKLQDEELTEGKQDALRLSLQEQQHAGIDIVSDGEQTRQHFVTTFIEHLSGVDFEKRETVRIRNRYDASVPTVVGAVSRPKPVFVDDAKFLRQQTRQPIKWALPGPMTMIDTLFDAHYKSREKLAWEFAKILNQEAKELEAAGVDIIQFDEPAFNVFFDEVNDWGVATLERAIEGLNCETAVHICYGYGIKANTDWKQTLGSEWRQYEESFPKLQASTIDIVSLECHNSHVPIDLIELVRGKKVMVGAIDVASNTIETPQEVADTLRKALRFVDADKLYPSTNCGMAPLARHVARGKLSALSAGADIIRAELSAQLEHHHHHH | not soluble
MNKLVCSTFAILAIIAISQVQSAVLPVSSKEVALITSSASTTSSSETSIDTLGSSRVKRQGGCGCCGCGCGCCGCGGGGGGGCGCCCCRPKCCCCCRRCCTCCRTCCCTRCCTCCRPCCCGCGCGCGCCGCGGGGRKRRSLQNLRIALANKIEGIAKVVKGSAVEASVMNALAPVNDATVEEKKDVIN | not soluble
MNKNLKFTQMMIGISTMALSFGSIQTHVSAEETASYNILQMKPIGTETSKDEIVHATKADETLTFEERLKVGDFSQRPTLVMERDEIQLKQSYTLAELNKMPNSELIDTLSKISWNQITDLFQFNQDTKAFYQNKERMNVIINELGQRGRTFTKENSKGIETFVEVLRSAFYVGYYNNELSYLKERSFHEKCLPALKAIAKNPNFTLGTAEQDRVVAAYGKLIGNASSDTETVQYAVNVLKQYNDNLTTYVSDYAKGQAVYEIVKGIDYDIQSYLQDTNKQPNETMWYGKIDNFINEVNRIALVGNITNENSWLINNGIYYAGRLGKFHSNPYKGLEVITQAMSLYPRLSGPYFVAVEQIKTNYGGKDYSGKAVDLQKIREEGKRQYLPKTYTFDDGSIVFKTGDKVTEEKIKRLYWAAKEVKAQYHRVIGNDKALEPGNADDVLTIVIYNNPDEYQLNRQLYGYETNNGGIYIEEKRTFFTYERTPKQSIYSLEELFRHEFTHYLQGRYEVPGLFGSGEMYQNERLTWFQEGNAEFFAGSTRTNNVVPRKSMISGLSSDPASRYTAKQTLFSKYGSWDFYKYSFALQSYLYNHQFDTFDKLQDLIRVNDVKNYDSYRESLSNNTQLNAEYQAYMQQLIDNQDKYNVPQVTNDYLIQHAPKPLAEVKNEIVDVANIKDAKITKYESQFFNTFTVEGKYTGGTSKGESEDWKTMSKQVNRTLEQLSQKGWSGYKTVTAYFVNYRVNAANQFEYDIVFHGVATEEKEKTNTIVNMNGPYSGIVNEEIQFHSDGTKSENGKVTSYLWNFGDGTTSTEANPTHVYEEKGTYTVELTVKDRRGKESKEQTKVTVKQDPQTGEFHEEEKVLLFNTLVKGNLVTPDQTDVYTFDVTDTKEVDISVVNEQNIGMTWVLYHESDMQNYVACGEDEGNVIKGKFEAKPGKYYLNVYKFDDKNGEYSLLVK | not soluble
MNKVVLLCRPGFEKECAAEITDKAGQREIFGFARVKENAGYVIYECYQPDDGDKLIRELPFSSLIFARQWFVVGELLQHLPPEDRITPIVGMLQGVVEKGGELRVEVADTNESKELLKFCRKFTVPLRAALRDAGVLANYETPKRPVVHVFFIAPGCCYTGYSYSNNNSPFYMGIPRLKFPAEAPSRSTLKLEEAFHVFIPADEWDERLANGMWAVDLGACPGGWTYQLVKRNMWVYSVDNGPMAQSLMDTGQVTWLREDGFKFRPTRSNISWMVCDMVEKPAKVAALMAQWLVNGWCRETIFNLKLPMKKRYEEVSHNLAYIQAQLDEHGINAQIQARQLYHDREEVTVHVRRIWAAVGGRRDER | not soluble
MNLFGQKDRGNHVSGVDRGKVIMYGLSTCVWCKKTKKLLTDLGVDFDYVYVDRLEGKEEEEAVEEVRRFNPSVSFPTTIINDEKAIVGFKEKEIRESLGF | soluble
MNLIKEDMRVKVHMEGNVNGHAFVIEGEGKGKPYEGTQTANLTVKEGAPLPFSYDILTTAVHYGNRVFTKYPEDIPDYFKQSFPEGYSWERTMTFEDKGICTIRSDISLEGDCFFQNVRFKGTNFPPNGPVMQKKTLKWEPSTEKLHVRDGLLVGNINMALLLEGGGHYLCDFKTTYKAKKVVQLPDAHFVDHRIEILGNDSDYNKVKLYEHAVARYSPLPSQVWHHHHHH | soluble
MNLKQLEVFLAVAESGSFSRGAEATFLTQSTVSQHIAALESEVGVRLLDRTSRGALLTEGGKILLEHARKVVAGSREISKVMRRFRGLEEAELRIGGSTIPADYMIPAMLASFLGRHPGVQVTLLQGDSRDILDRIEREDAEVGIIGSRFDEEGFTFTPLGRDEIRLIAAPDHPLAGTGAVPLAELANHGFVFRELGSGTAKSVAEALAGAGLPAEKLHVRACLGSNEAVKQAVAAGLGLSFVSELSVRKELARGELVELPVEGLTIARTFYLVARTGRELSPPAVAFIGELTGTRLA | not soluble
MNLPAHTALFTPSWHAELELGYGRFYDCTRPTQRRHKGPLRVQKHLYAEGPEVCQHIIVHPPGGIAGGDRLDISVNVGAHAWAQLTSPGAAKWYRAASPAFQQLELHVQPGATLEWLPQETIVFSNAQAELTTRIELHGDARLCYWDVVALGRPASGERFEHGHFQSHLDIRRDGTLLWHERQRIIGADGLLDSPIGLDGKTVFATLLLTGDVDSDLLEVCRSLSMPSPVRGNLTQLPGLIVARCLADEALHARAWLIEIWKRLRPALLGREAVMPRIWNTLEHHHHHH | not soluble
MNLPLEYHPFPAILPKSATVAMLGTFPPTSEKRCMEFHYPNFQNDMWRIMGLLFYKNLDHFRVDQEKRFDPVRIEAFLREKGIALCSSAQTAIRLKGNASDKDLKIIDAIDMQALLTELPQLKWLFTTGGLATETLLSLLPEKSKLPKTNEWINYPYTTDRTLYLYRLPSTSRAYPLSLAKKVEAYRQFFVRVGLEHHHHHH | not soluble
MNLRIPWKEVYYLGYNMGNYIKISEPELLFVLRNKPQIKDRLKLDEKTIIKEGVKKYKNFWEIYYTVKDLILRGYRVRFDGFFIELYEKGIIPGTIEQDYLVYPVSGEIRMTWGELLDIYNKAIARKSKFMLAIVDSEGDVTYYEFRKLRSNK | soluble
MNMVSQGVKGGEYRSPQKNYTQLTFKNVDAIGHPQGAISQMLNSTGYYCQSQTTPFVPYFLSSLDFFAWRQAIPEMFYPEALVPGMREIRGNGETWGNIFPRSGAVTQVDDYKASAVSVHRVADFLTRMAQPHIYLPTAKQEQGQNGHWYPDPVQEGEVGNHKWQQLHPQLSQSCSIFPDTPPAQLSENGSYAWALWRPYKCCKRRGQTFLYSVDWSNLEHHHHHH | not soluble
MNNHFKCIGIVGHPRHPTALTTHEMLYRWLCDQGYEVIVEQQIAHELQLKNVPTGTLAEIGQQADLAVVVGGDGNMLGAARTLARYDINVIGINRGNLGFLTDLDPDNALQQLSDVLEGRYISEKRFLLEAQVCQQDRQKRISTAINEVVLHPGKVAHMIEFEVYIDETFAFSQRSDGLIISTPTGSTAYSLSAGGPILTPSLDAITLVPMFPHTLSARPLVINSSSTIRLRFSHRRSDLEISCDSQIALPIQEGEDVLIRRCDYHLNLIHPKDYSYFNTLSTKLGWSKKLFMAGDPLEHHHHHH | not soluble
